Source: patent US20250122242A1, “SELECTION SYSTEMS, PEPTIDES DETERMINED THEREWITH, AND METHODS OF USING SAME” (Wisconsin Alumni Research Foundation, priority 2023, published 2025)

How the values were obtained:
[1] = molecular target: T1, hIAPP (Homo sapiens, UniProt P10997); test: ThT fluorescence assay of in vitro hIAPP aggregation; assay type: biochemical; conditions: for effect on aggregation lag time (tlag) / inhibition of hIAPP aggregation (ThT fluorescence): 10 μM hIAPP, PBS pH 6.9, 32° C.; for effect on aggregation lag time (tlag): ThT; for activity relative to MCIP-2a: at higher peptide:hIAPP stoichiometries; for inhibition of hIAPP aggregation (ThT fluorescence): chemically synthesized peptide, quiescent
T1 construct: A 1 mg portion of amylin trifluoroacetate salt (Bachem) was purchased as lyophilized solid in a vial; purchased Bachem
T1 sequence (P10997 34-70 limits assumed): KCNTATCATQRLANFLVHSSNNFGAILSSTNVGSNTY
Protocol: Preparation of ThT stock solution. To prepare a stock solution of ThT (2-3 mM), 2-4 mg of ThT was added to 3 mL PBS (pH 6.9) in a 15 mL conical tube. The solution was sonicated for 5 min and the supernatant was filtered through a 0.22 μm syringe filter into a 1.5 mL Eppendorf tube. This was the ThT stock solution to be used in following experiments. 2 mL of a 1:200 diluted ThT solution was prepared by adding 10 μL ThT stock solution into 1990 μL PBS. The absorbance of the diluted ThT solution measured at 412 nm was used to calculate the ThT stock concentration using an extinction coefficient (c) of 31600 M^−1 cm^−1.
Preparation of hIAPP stocks. A 1 mg portion of amylin trifluoroacetate salt (Bachem) was purchased as lyophilized solid in a vial. The solid was dissolved in pre-chilled 2562 μL 35 mM sodium acetate (pH 5.3) to a stock concentration of 100 μM on ice. Aliquots of hIAPP were prepared by transferring 200 μL of the 100 μM hIAPP stock solution to low-protein-binding Eppendorf tubes on ice. The aliquots were then immediately snap frozen using liquid N2, lyophilized for 24 h, and stored at −80° C. until use.
Preparation of samples for ThT assays. Using cyclic peptide stock solution (100 μM) and PBS, 400 μL aqueous solution of cyclic peptide was prepared in a low-protein-binding Eppendorf tube to achieve the desired cyclic peptide:hIAPP molar ratio (80 μM for 4:1, 40 μM for 2:1, 20 μM for 1:1, 10 μM for 0.5:1, 0 μM for 0:1). 30 μL of the solution was then loaded to wells on a black clear-bottom low-binding 96-well plate (Corning 3881) to make a triplicate for each condition. This plate loaded with aqueous solutions of cyclic peptides was then ready for adding hIAPP.
Preparation and addition of hIAPP for ThT assays. Using ThT stock solution and PBS, 1 mL ThT solution (10 μM) was prepared in a low-protein-binding Eppendorf tube and chilled on ice. 0.5 mL of the pre-chilled ThT solution was added to one aliquot of lyophilized hIAPP, which was equilibrated to room temperature before opening the tube. Pipetting up and down four times was performed to facilitate complete dissolving of hIAPP. The 0.5 mL hIAPP-containing solution was immediately transferred to the remaining 0.5 mL ThT solution on ice. Pipetting up and down four times was performed to facilitate complete mixing. The resulting 1 mL hIAPP solution, where [hIAPP]=20 μM, was immediately transferred to a 25 mL liquid reservoir. Using a multi-channel pipette, 30 μL of the hIAPP solution was quickly loaded into wells containing aqueous solutions of cyclic peptides on the 96-well plate. Final [hIAPP]=10 μM, [ThT]=5 μM.
ThT assay conditions. The plate was then quickly covered and incubated in a Tecan M Plex microplate reader under quiescent condition at 32° C. for at least 12 h. ThT fluorescence at 480 nm was measured every 5 min through the bottom of the plate using an excitation wavelength of 440 nm.
Fitting of aggregation kinetics. ThT aggregation kinetics data was fit to a sigmoidal function using GraphPad Prism and the aggregation lag time (tlag) and the apparent fibril elongation rate (kapp) calculated as described.^55

[2] = molecular target: Aβ42-T7n (UniProt P00573+P05067); conditions: clonal SP encoding the sequence
Aβ42-T7n, sequence (P05067+P00573 fused): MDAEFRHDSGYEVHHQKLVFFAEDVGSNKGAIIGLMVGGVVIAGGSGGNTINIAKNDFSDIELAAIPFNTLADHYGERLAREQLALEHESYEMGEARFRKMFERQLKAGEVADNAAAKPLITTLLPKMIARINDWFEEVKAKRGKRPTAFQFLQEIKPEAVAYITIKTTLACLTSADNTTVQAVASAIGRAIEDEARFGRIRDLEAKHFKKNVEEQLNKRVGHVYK
Text: Therefore, we turned to a split-T7 RNA polymerase (T7 RNAP) reporter used to evolve proteins with improved soluble expression.^33 In our new selection, host E. coli express an aggregation-prone protein (APP) fused to the N-terminal half of split-T7 RNAP (T7n). When the APP-T7n fusion is translated, it misfolds due to the APP, preventing T7n from associating with the C-terminal half of split-T7 RNAP (T7c; FIG. 2A). If a SP-encoded inhibitor binds to and prevents APP aggregation, the fused T7n will remain folded and join with T7c to produce full-length T7 RNAP. The reconstituted T7 RNAP then transcribes gIII, which we place under control of the T7 promoter (PT7), producing pill and allowing the SP to reproduce (FIGS. 2A and 2B).
We used the SICLOPPS method to biosynthesize cyclic peptides that can be selected in E. coli.^15 In SICLOPPS, a precursor fusion consisting of the C-terminal half of the Ssp DnaE split intein, the peptide sequence to be cyclized, and the N-terminal half of the same split intein undergoes intein splicing after translation to produce head-to-tail cyclized peptides (FIG. 7).
(§1) Strain S206035 was used for plasmid cloning, amplification, and phage assays. Strain S220835 was used for SP cloning and plaque assays. Plasmids and SPs were cloned by USER assembly or blunt-end ligation. Competent cells were prepared and transformed using the TSS method. Phage propagation and plaque assays were performed as previously described.^54 Unless otherwise noted, phage propagation assays used an input of […] phage to infect a 2 mL culture of host cells.

[3] = molecular target: hIAPP-T7n (UniProt P00573+P10997); conditions: clonal SP encoding the sequence (FIG. 5E)
hIAPP-T7n, sequence (P10997+P00573 fused): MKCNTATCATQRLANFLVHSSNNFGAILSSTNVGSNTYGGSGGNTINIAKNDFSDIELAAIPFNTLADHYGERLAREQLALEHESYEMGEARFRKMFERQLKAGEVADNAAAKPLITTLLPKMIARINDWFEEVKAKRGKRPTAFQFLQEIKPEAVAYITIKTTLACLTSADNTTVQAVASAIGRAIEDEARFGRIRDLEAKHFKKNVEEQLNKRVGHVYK
Text: Next, we examined if our system could discover inhibitors of other disease-associated APPs. We targeted human islet amyloid polypeptide (hIAPP), which forms amyloid deposits in patients with type-2 diabetes that are hypothesized to contribute to […] dysfunction.^40 To create a selection for hIAPP aggregation inhibitors, we simply cloned hIAPP in place of Aβ42 in our selection circuit (FIG. 2B). We used an SP-encoded CZ6 SICLOPPS library (Z=NDT codon encoded amino acid: R, N, D, C, G, H, I, L, F, S, Y, or V) (˜3×10^6 total sequences). This codon set was chosen to reduce the theoretical library size and facilitate library cloning. The library (total of ˜5×10^6 transformants) was cloned on a SP obtained from an additional 250 hours of PACE using a more stringent selection (FIGS. 10A-10D).
as §1

| Substance | effect on aggregation lag time (tlag) [1] | activity relative to MCIP-2a [1] | inhibition of hIAPP aggregation (ThT fluorescence) [1] | phage propagation activity (fitness) on Aβ42-T7n selection [2] | phage propagation activity on hIAPP-T7n selection [3] |
| --- | --- | --- | --- | --- | --- |
| CRCVFSG (cyclised; Circular) [cyclo-CRCVFSG] | extended tlag | less active than MCIP-2a | inhibited hNAPP fibrillation |  |  |
| CDLGVFR (cyclised; Circular) [cyclo-CDLGVFR] | extended tlag | less active than MCIP-2a | inhibited hNAPP fibrillation |  |  |
| CHVVGVI (cyclised; Circular) [cyclo-CHVVGVI] | delaying the aggregation lag time (tlag) in a dose-dependent fashion | less active than MCIP-2a | inhibited hIAPP aggregation | propagated robustly | propagated robustly |
